Assay results: patent US20220332804A1 (CSL INNOVATION, published 2022)
Numbering of substitutions follows the chain as printed.

How the values were obtained:
Assay in all cases: SPR, KD relative to WT C2;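 also: biacore SPR at 37 °C, anti-C2 mAbs captured on anti-human IgG chips with alanine or serine point mutants of C2 as analyte, KD from 1:1 fit compared with wild-type C2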
human C2 S428A = molecular target: T1, human C2 S428A (human, UniProt P06681 21-752)
T1 sequence: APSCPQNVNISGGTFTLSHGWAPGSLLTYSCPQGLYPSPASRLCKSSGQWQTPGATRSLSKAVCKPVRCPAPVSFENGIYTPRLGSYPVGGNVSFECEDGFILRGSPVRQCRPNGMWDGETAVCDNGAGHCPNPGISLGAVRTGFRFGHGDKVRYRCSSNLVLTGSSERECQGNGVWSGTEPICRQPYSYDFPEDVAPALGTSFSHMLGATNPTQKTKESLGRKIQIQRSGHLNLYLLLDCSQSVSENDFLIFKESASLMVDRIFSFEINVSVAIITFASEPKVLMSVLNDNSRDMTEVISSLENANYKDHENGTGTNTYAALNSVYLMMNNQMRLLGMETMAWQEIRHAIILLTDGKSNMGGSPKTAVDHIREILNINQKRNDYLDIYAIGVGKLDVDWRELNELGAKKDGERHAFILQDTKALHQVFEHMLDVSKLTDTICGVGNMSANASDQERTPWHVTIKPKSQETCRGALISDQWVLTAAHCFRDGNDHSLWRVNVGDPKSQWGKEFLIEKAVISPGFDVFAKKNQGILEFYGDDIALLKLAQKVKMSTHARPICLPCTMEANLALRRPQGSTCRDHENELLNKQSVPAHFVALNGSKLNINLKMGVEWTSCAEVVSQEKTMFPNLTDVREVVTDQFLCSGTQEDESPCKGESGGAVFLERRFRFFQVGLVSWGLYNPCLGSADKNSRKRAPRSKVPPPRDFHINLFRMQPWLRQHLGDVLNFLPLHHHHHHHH

human C2 K430A = molecular target: T2, human C2 K430A (human, UniProt P06681 21-752)
T2 sequence: T1 sequence with A408S, K410A

human C2 L453A = molecular target: T3, human C2 L453A (human, UniProt P06681 21-752)
T3 sequence: T1 sequence with A408S, L433A

human C2 S469A = molecular target: T4, human C2 S469A (human, UniProt P06681 21-752)
T4 sequence: T1 sequence with A408S, S449A

B1: RF16-242 (antibody, human IgG4 S228P, lambda, V domains shown)
VH: EVQLLQSGAEVKKPGESLKISCKGSGYSFTSYWIGWVRQMPGKGLEWMGIIYPGDSDTRYSPSFQGQVTISADKSISTAYLQWSSLKASDTAMYYCARRGHYGDYFDYWGQGTLVTVSS
VL: SYELTQPPSVSVSPGQTARITCSGDALPKKYAYWYHQKSGQAPVLVIYEDRRRPSEIPERFSGSSSGTMATLTITGAQVEDEGVYFCYSRDRAGNQRVFGGGTQLTVLG
notes: pH-dependent anti-C2 antibody from a phage display library
Fold diff (human C2 S428A): 3 fold
Fold diff (human C2 K430A): 13 fold
Fold diff (human C2 L453A): 1 fold
Fold diff (human C2 S469A): 3 fold
